This data set concerns the molecule itself. Nature of the data set: crystal structure; sitting drop vapor diffusion at 18 °C; 25% (w/v) PEG 3350, 0.1 M Bis-Tris pH 5.6, 0.1 M ammonium sulfate; resolved to 2.0 Å.

B1: Rv2466c C22S mutant (enzyme)
chain: not shown
Take B1: the binding result is listed as “binds”.

The values above are taken from paper PMC5952258 (ACS Infectious Diseases, 2018).
